The term stoichiometry N denotes the number of molecules, sites or subunits per partner or assembly.

This is an account of results in paper PMC11234463, “Structural Evolution of Bacterial Polyphosphate Degradation Enzyme for Phosphorus Cycling” (Advanced Science, 2024).

In one assay the target is T1, DrPPX (Deinococcus radiodurans, UniProt Q9RYW9).
T1 construct: gene DR_A0185; full length, N-terminal His6 tag (pET-28a), expressed in E. coli BL21 Rosetta pLysS (DE3); asymmetric homodimer; about 515 residues (C-terminal deletion printed as 320-515)
T1 sequence (Q9RYW9 entry or part of it): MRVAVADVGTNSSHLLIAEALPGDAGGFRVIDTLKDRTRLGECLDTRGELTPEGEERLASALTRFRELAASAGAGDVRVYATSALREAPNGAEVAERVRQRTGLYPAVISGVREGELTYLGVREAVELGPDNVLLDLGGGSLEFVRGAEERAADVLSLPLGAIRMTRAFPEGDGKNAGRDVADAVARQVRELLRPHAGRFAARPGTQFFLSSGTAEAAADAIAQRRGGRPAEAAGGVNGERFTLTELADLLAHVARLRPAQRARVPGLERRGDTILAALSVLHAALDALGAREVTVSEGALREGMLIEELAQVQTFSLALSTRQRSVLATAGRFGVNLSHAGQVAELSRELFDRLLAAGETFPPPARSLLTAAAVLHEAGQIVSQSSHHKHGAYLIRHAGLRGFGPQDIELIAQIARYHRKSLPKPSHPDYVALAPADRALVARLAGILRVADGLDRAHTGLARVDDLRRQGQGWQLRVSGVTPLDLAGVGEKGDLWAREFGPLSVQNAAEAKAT
The experiment in a line: X-ray crystal structure of complex. The settings on record: crystals grown in 1.26 M NaH2PO4 and 0.14 M K2HPO4, pH 5.6; four phosphate ions in the polyP-binding area.

The target in assay [1] is AbPPX, exopolyphosphatase (PPX) from Acinetobacter baumannii (Acinetobacter baumannii 15827). The experiment in a line: crystal structure; sitting drop vapor diffusion at 20 °C, protein 1-5 mg/mL; molecular replacement with E. coli PPX (PDB 1U6Z); dimers seen in the crystals.
Assay [2] has as its target DrPPX, exopolyphosphatase (PPX) from Deinococcus radiodurans, wild type (Deinococcus radiodurans R1). The experiment in a line: SEC; gel filtration chromatography; elution peak of DrPPX (+7AA) compared with that of wild-type DrPPX. On the technique in general: In gel filtration, larger molecules generally elute earlier.
The target is the same in assay [3]. The experiment in a line: crystal structure; sitting drop vapor diffusion at 20 °C, protein 1-5 mg/mL; molecular replacement with E. coli PPX (PDB 1U6Z); dimers seen in the crystals.
Assay [4] deals with KpPPX, exopolyphosphatase (PPX) from Klebsiella pneumoniae (Klebsiella pneumoniae 1158). The assay is described as above.

Take `O=P(O)(O)O` [Pi, phosphate]: on DrPPX, the “X-ray crystal structure of complex” value is on record as “four phosphate ions were located in the polyP‐binding area”.

In the case of “AbPPX, exopolyphosphatase (PPX) from Acinetobacter baumannii (enzyme)”, the stoichiometry N in assay [1] was determined as 2.

On to “DrPPX, exopolyphosphatase (PPX) from Deinococcus radiodurans, wild type (enzyme)”, for which the stoichiometry N in assay [2] and in assay [3] was 2 throughout.

“KpPPX, exopolyphosphatase (PPX) from Klebsiella pneumoniae (enzyme)” came in with a stoichiometry N in assay [4] of 2.
